This note sets out measurements from article PMC8041823, “Structural comparison of Acinetobacter baumannii β-ketoacyl-acyl carrier protein reductases in fatty acid and aryl polyene biosynthesis” (Scientific Reports, 2021).

Assay [1] concerns the target Acinetobacter baumannii ApeQ (β-ketoacyl-ACP reductase of the aryl polyene biosynthesis gene cluster) (Acinetobacter baumannii (clinical CRAB strain C1)). The assay can be described thus: crystal structure; apo AbApeQ, space group P3_(1)2, four molecules in the asymmetric unit.
The target is the same in assay [2]. The assay can be described thus: crystal structure; AbApeQ co-crystallised with NADPH (1:3 molar ratio), space group P2_(1), four molecules in the asymmetric unit.
The target in assay [3] is Acinetobacter baumannii FabG (β-ketoacyl-ACP reductase of the fatty acid synthase gene cluster) (Acinetobacter baumannii (clinical CRAB strain C1)) (UniProt V5VHN7). Kind of assay: crystal structure; apo AbFabG, 1.79 Å, four molecules in the asymmetric unit.

Usually stoichiometry N stands for the number of molecules, sites or subunits per partner or assembly. Take “Acinetobacter baumannii ApeQ (β-ketoacyl-ACP reductase of the aryl polyene biosynthesis gene cluster) (enzyme)”: the stoichiometry N in assay [1] and in assay [2] was 4 in each case.
In the case of “Acinetobacter baumannii FabG (β-ketoacyl-ACP reductase of the fatty acid synthase gene cluster) (from UniProt V5VHN7 1-244) (enzyme)”, the stoichiometry N in assay [3] is 4.
